The source of these data is US20050069911A1.

The target of assay [1] is antibody P1. Put plainly: peptide competition ELISA. In general terms: In an ELISA, binding on a coated surface is turned into a signal by an enzyme label.
For assay [2], the target named is antibody P1. Put plainly: peptide competition ELISA; free peptide against immobilized target peptide for P1.
In assay [3] the target is antibody C1. The assay is described as follows: peptide competition ELISA.
Assay [4] has as its target antibody C1. Put plainly: peptide competition ELISA; free peptide against immobilized target peptide for C1.
Assay [5] concerns the target antibody P1. Put plainly: peptide competition ELISA; free peptide competes with immobilized target peptide for P1.
Assay [6] concerns the target antibody P1. The assay is described as follows: peptide competition ELISA (Example 5): the free peptide, in rising concentration, competes with the plate-bound target peptide for antibody P1; HRP-labelled secondary antibody, absorbance at 450.
The target of assay [7] is antibody C1. Put plainly: peptide competition ELISA; free peptide competes with immobilized target peptide for C1.
For assay [8], the target named is antibody C1. The assay is described as follows: peptide competition ELISA (Example 5): the free peptide, in rising concentration, competes with the plate-bound target peptide for antibody C1; HRP-labelled secondary antibody, absorbance at 450.

Where no end group is shown, it is not given here.

B1: nearest-neighbor 8-mer peptide EPVELTSA (peptide)
peptide: EPVELTSA
For orientation: IC50 means the midpoint of a concentration-inhibition curve. A high value points to a need for much substance. Take B1: in the assay with antibody P1 [1], the fold higher concentration without competition, against the antigen PET EPAELTDA turned out to be 25000 fold. In addition, the IC50 in the assay with antibody P1 [2] was > 1000 µM.

B2: nearest-neighbor 8-mer peptide VEVNGEVF (peptide)
peptide: VEVNGEVF
On to B2, for which, in the assay with antibody C1 [3], the fold higher concentration without competition, against the antigen PET YEVQGEVF is > 1000 fold. Besides, the IC50 in the assay with antibody C1 [4] was > 1000 µM.

B3: nearest-neighbor 8-mer peptide DPTQLTDA (peptide)
peptide: DPTQLTDA
In turn, B3 had a fold higher concentration without competition, against the antigen PET EPAELTDA with antibody P1 [1] of 25000 fold. In addition, the half-inhibitory concentration (IC50) with antibody P1 [2] is > 1000 µM.

B4: PSA-derived 8-mer PET peptide EPAELTDA (peptide)
peptide: EPAELTDA
modifications: not fully specified
Consider B4, for which, in the assay with antibody P1 [5], the IC50 worked out at 0.04 µM. The IC50 (read off the curve) with antibody P1 [6] is 0.09 µM.

B5: nearest-neighbor 8-mer peptide YEVLGEEF (peptide)
peptide: YEVLGEEF
Turning to B5, the fold higher concentration without competition, against the antigen PET YEVQGEVF with antibody C1 [3] is > 1000 fold. In addition, the IC50 in the assay with antibody C1 [4] was > 1000 µM.

B6: CRP-derived 8-mer PET peptide YEVQGEVF (peptide)
peptide: YEVQGEVF
In the assay with antibody C1 [7], B6 returned an IC50 of 1 µM. In the assay with antibody C1 [8], this molecule returned an IC50 (read off the curve) of 0.9 µM.
